The values below come from paper PMC4725768.

Assay [1] concerns the target A391E EC+TM FGFR3 construct (human).
Assay [2] has as its target EC+TM (A374I-G375I-S378I) FGFR3 mutant (human).
Assay [3] concerns the target EC+TM (L377I-G380I-A391I) FGFR3 mutant (human).
Assay [4] concerns the target FGFR1 EC+TM-(GGS)5-YFP / FGFR1 EC+TM-(GGS)5-mCherry (human).
Assay [5] deals with FGFR3 EC+TM-(GGS)5-YFP / FGFR3 EC+TM-(GGS)5-mCherry (human).
Assay [6] deals with full-length FGFR3 (human FGFR3 IIIc) fused to YFP or mCherry (human) (UniProt P22607).
UniProt P22607, sequence (P22607 23-806): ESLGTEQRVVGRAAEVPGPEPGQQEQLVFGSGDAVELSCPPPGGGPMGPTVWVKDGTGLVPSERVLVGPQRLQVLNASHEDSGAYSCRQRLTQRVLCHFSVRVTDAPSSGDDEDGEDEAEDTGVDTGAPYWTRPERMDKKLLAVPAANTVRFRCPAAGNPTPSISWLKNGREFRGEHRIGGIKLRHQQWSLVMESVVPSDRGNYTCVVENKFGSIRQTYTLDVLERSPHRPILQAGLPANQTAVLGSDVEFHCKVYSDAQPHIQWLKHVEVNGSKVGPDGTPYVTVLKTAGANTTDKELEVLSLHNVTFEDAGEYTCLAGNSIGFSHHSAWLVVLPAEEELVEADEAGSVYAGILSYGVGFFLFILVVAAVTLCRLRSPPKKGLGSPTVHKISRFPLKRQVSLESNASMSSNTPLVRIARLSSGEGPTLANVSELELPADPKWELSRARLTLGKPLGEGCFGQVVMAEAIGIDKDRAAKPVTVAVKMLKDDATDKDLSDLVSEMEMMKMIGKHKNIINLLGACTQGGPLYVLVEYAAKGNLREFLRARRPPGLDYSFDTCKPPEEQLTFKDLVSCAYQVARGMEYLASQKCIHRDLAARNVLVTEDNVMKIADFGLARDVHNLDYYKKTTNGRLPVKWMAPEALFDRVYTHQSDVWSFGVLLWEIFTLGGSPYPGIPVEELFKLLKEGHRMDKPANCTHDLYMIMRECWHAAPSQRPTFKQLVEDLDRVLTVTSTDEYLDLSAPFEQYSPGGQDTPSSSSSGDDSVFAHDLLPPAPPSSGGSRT

In the case of “human fgf1 (from UniProt P05230 16-155) (ligand)”, the intrinsic FRET of the EC+TM FGFR3 A391E dimer (QI-FRET in vesicles) at saturating fgf1 in assay [1] came to 0.75. The same substance displayed an intrinsic FRET of the EC+TM FGFR3 A374I-G375I-S378I dimer (QI-FRET in vesicles) at saturating fgf1 in assay [2] of 0.63. The intrinsic FRET of the EC+TM FGFR3 L377I-G380I-A391I dimer (QI-FRET in vesicles) at saturating fgf1 in assay [3] was 0.52. This substance also showed an intrinsic FRET of the EC+TM FGFR1 dimer (QI-FRET in vesicles) at saturating fgf1 (5 μg ml^−1) in assay [4] of 0.55. This substance gave an intrinsic FRET of the EC+TM FGFR3 dimer (QI-FRET in vesicles) at saturating fgf1 (5 μg ml^−1) in assay [5] of 0.55. In assay [6], this substance gave a fold increase of full-length FGFR3 phosphorylation (western blot, anti-phospho-Tyr) at saturating fgf1 over no ligand of 1.5 to 3 fold.
“human fgf2 (from UniProt P09038 143-288) (ligand)”: the intrinsic FRET of the EC+TM FGFR3 A391E dimer (QI-FRET in vesicles) at saturating fgf2 in assay [1] was determined as 0.78. This substance also gave an intrinsic FRET of the EC+TM FGFR3 A374I-G375I-S378I dimer (QI-FRET in vesicles) at saturating fgf2 in assay [2] of 0.74. In assay [3], this substance returned an intrinsic FRET of the EC+TM FGFR3 L377I-G380I-A391I dimer (QI-FRET in vesicles) at saturating fgf2 of 0.53. The substance also showed an intrinsic FRET of the EC+TM FGFR1 dimer (QI-FRET in vesicles) at saturating fgf2 (5 μg ml^−1) in assay [4] of 0.73. Besides, the intrinsic FRET of the EC+TM FGFR3 dimer (QI-FRET in vesicles) at saturating fgf2 (5 μg ml^−1) in assay [5] amounted to 0.72. The substance also gave a fold increase of full-length FGFR3 phosphorylation (western blot, anti-phospho-Tyr) at saturating fgf2 over no ligand in assay [6] of 2 to 4 fold.
